Assay results reported in patent US20220347267A1, “METHODS TO IMPROVE PATIENT RESPONSE TO IMMUNE CHECKPOINT INHIBITORS AND FUNCTIONAL TESTS TO PREDICT RESPONSE” (Biomarker Strategies, LLC, priority 2019, published 2022).

Legend:
Assay type in all cases: cell-based, human
SKMES1 cells [1] = assay: Western blot of secreted and intact PDL1 in media and lysate; details: 10 ng/mL IFNg for 24 h, concentrated media and lysate, antibody clone E1J2J
Method: Different forms of PDL1 can be expressed at baseline as well as after modulation, and the abundance of each form will impact response to therapy. The two major forms are membrane bound and soluble (secreted or intracellular compartments). The relative ratios of the forms, and their cellular locations, can be changed by a modulator and will require different strategies for optimal ICI therapy. As way of example, the cell line SKMES1 was treated with vehicle or 10 ng/mL IFNg for 24 h. After treatment, media was collected and concentrated using an Amicon ultra 0.5 mL centrifugal filter with a 10 kDa cutoff. The retentate, containing proteins >10 kDa, was recovered in a clean tube at 14000 rpm for 5 min. Simultaneously, lysates of the same cells were made. PDL1 was then detected using 10% Tris-Glycine SDS gels and PVDF membranes. The western blot was carried out using 5% non-fat dry milk in TBST for 1h, followed by incubation with primary antibody against PDL1 (clone E1J2J; raised to the extracellular portion of PDL1) in 2% BSA for overnight, then anti-rabbit HRP secondary antibody before using a chemiluminescent reagent (Bio-Rad). […] Thus, by using westerns where the intact and secreted forms of PDL1 are first resolved by MW and different types of sample/resource material (media vs lysate or blood/plasma vs tumor), the response to therapy can be predicted. […]

SKMES1 cells [2] = assay: PD-L1 confocal microscopy, IFNγ stimulation
Source text: (§1) To obtain fluorescent specimens, similar procedures are used when compared to flow cytometry. The sample is stained with a primary antibody that is specific for a protein of interest. The primary antibody can be conjugated to a fluorescent molecule or a secondary antibody can be used that attaches to the primary antibody. For intracellular staining of cells, the specimen can be fixed and permeabilized using methanol, formalin or a fixative containing a detergent. Subsequently, the specimen is stained with primary and/or secondary antibodies. For this dataset, samples were stained for PD-L1 in suspension using the same protocol that was used for the flow cytometry dataset. The protocol used was as follows:
(§2) Samples (150 uL per tube) were first incubated with a blocking reagent (BD cat #564219, Lot #9305316) at 1:20 for 15 min at room temperature. Alexa 488-conjugated PD-L1 antibody (CST cat #25048, Lot #2) and Alexa 488-conjugated isotype antibody (CST cat #2975, Lot #16) were added to experimental samples and isotype control samples, respectively, at a manufacturer recommended dilution of 1:50 and the samples were incubated for 30 min at room temperature. Other fluorophore-conjugates and PD-L1 antibodies, including those targeting different epitopes, can be readily used. Additionally, antibodies detecting other biomarkers with appropriate processing (e.g. permeabilization of cells) to predict response (e.g. p-STAT-1) can be used. Following the incubation with an antibody, 1 mL of 2% FBS in PBS was added to each tube to dilute the antibody. Samples were then centrifuged at 200 rcf for 5 min. Supernatant was carefully aspirated and 200 uL of 10% neutral buffered formalin (NBF) was added. Samples were then fixed for 10 min at room temperature. NBF was diluted with 1 mL of 2% FBS in PBS and the samples were centrifuged at 200 rcf for 5 min. Supernatant was aspirated and the cells were resuspended in 0.5 mL of 2% FBS in PBS for flow cytometric analysis. In this experiment, 10% NBF was used to fix cells, but other fixatives, for example, 4% paraformaldehyde can be used. For localization experiments an anti-phosphotyrosine antibody, anti-human/mouse, PE-Vio® 770 (Miltenyi Biotec, Cat #130-109-112) and an anti-PD-L1 antibody, anti-human, Brilliant Violet 650 (BV650; BD Biosciences, Cat #563740) were used. […]
(§3) PD-L1 was assessed in four cell lines (FIG. 35A). PD-L1 was quantified by analyzing FITC-PD-L1 using an 8-bit photomultiplier tube and quantified as raw arbitrary units (FIG. 35B). The PD-L1 expression of the four cell lines was quantified in treated and untreated conditions. […] Thus, PD-L1 expression can be measured qualitatively and quantitatively using confocal microscopy and other fluorescent microscopy techniques.

H460 cells = assay: PD-L1 confocal microscopy, IFNγ stimulation
Source text: as §1, §2, §3

H1650 cells = assay: PD-L1 confocal microscopy, IFNγ stimulation
Source text: as §1, §2, §3

H1299 cells = assay: PD-L1 confocal microscopy, IFNγ stimulation
Source text: as §1, §2, §3

B1: IFNγ: human IFNγ, modulator (10 ng/ml; Sigma Aldrich) (protein, UniProt P01579 24-161, looked up)
Interferon gamma: QDPYVKEAENLKKYFNAGHSDVADNGTLFLGILKNWKEESDRKIMQSQIVSFYFKLFKNFKDDQSIQKSVETIKEDMNVKFFNSNKKKRDDFEKLTNYSVTDLNVQRKAIHELIQVMAELSPAAKTGKRKRSQMLFRG
expression of secreted and intact PDL1 (SKMES1 cells [1]): detected the expression of secreted and intact PDL1 | PD-L1 expression by confocal microscopy, untreated and IFNγ treated (SKMES1 cells [2]): innate expression | PD-L1 expression by confocal microscopy, untreated and IFNγ treated (H460 cells): adaptive expression | PD-L1 expression by confocal microscopy, untreated and IFNγ treated (H1650 cells): negative | PD-L1 expression by confocal microscopy, untreated and IFNγ treated (H1299 cells): negative
